Results taken from patent US6096512A, “Cloned DNA encoding a UDP-GalNAc: Polypeptide, N-acetylgalactosaminyltransferase” (Pharmacia & Upjohn Company, priority 1997, dated 2000).

Key:
[1] = biological target: T1, bovine colostrum GalNAc-transferase (Bos taurus, UniProt Q07537); assay: Transfer of N-acetylgalactosamine to protein acceptors by bovine colostrum GalNAc-transferase; assay type: biochemical; settings: acceptor 65 μM, enzyme approximately 65 mU/ml, 60 minutes
T1 sequence (Q07537 41-559): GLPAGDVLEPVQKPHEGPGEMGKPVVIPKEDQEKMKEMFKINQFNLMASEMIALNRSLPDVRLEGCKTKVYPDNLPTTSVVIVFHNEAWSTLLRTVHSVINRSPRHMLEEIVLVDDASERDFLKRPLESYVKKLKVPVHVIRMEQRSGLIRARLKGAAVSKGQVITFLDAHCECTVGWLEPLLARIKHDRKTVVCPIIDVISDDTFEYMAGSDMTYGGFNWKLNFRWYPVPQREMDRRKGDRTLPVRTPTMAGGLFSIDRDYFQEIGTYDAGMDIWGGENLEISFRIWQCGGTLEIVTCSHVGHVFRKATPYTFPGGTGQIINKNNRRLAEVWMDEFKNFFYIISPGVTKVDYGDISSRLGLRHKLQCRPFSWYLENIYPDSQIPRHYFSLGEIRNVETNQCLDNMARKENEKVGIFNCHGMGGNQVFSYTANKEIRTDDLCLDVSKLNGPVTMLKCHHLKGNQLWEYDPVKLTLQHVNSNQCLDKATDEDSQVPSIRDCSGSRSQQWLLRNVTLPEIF
Procedure: The standard assay for UDP-GalNAc:polypeptide, N-acetylgalactosaminyltransferase activity during purification contained the following components in a final volume of 80 μl: 50 mM Imidazole pH 7.2, 10 mM MnCl2, 0.5% Triton X-100, 15 μM UDP-GalNAc, UDP[1-^3 H-] GalNAc (27,000 cpm/assay), 0.15 mg/ml apomucin and varying amounts of enzyme (see individual experiments). The reaction mixture is incubated at 37° C. for 5-10 minutes (see individual experiments) and the reaction product is TCA precipitated and radioactivity measured as described. Assays for activity in lysates from Spodoptera frugiperda cell line 9 (hereinafter referred to as Sf9 cells) are carried out as described by Thomsen et al., (1990).
The above conclusions and the predictions of the specificity algorithm are validated experimentally by studying the ability of bovine colostrum GalNAc-transferase to transfer N-acetylgalactosamine to a variety of acceptors, both native proteins and synthetic acceptor peptides. The transfer of N-acetylgalactosamine to protein acceptors is assayed as described by Elhammer and Kornfeld, 1986, with minor modifications. The concentration of UDP-GalNAc is saturating in all assays; a Km of 8 μM is reported for bovine colostrum GalNAc-transferase (Elhammer and Kornfeld, 1986).
The transfer of N-acetylgalactosamine to protein acceptors was assayed
under standard conditions (see Material and Methods). The acceptor
concentration was 65 μM, the enzyme concentration approximately
65 mU/ml and assay time was 60 minutes. The transfer to both native and
reduced-carboxymethylated acceptors was assayed.

[2] = biological target: T1, bovine colostrum GalNAc-transferase; settings: Cruz and Moscarello, 1983; cited from earlier work

B1: Myelin basic protein: efficient acceptor for GalNAc-transferase, included as a positive control (protein, UniProt P02686 1-304, looked up)
Myelin basic protein: MGNHAGKRELNAEKASTNSETNRGESEKKRNLGELSRTTSEDNEVFGEADANQNNGTSSQDTAVTDSKRTADPKNAWQDAHPADPGSRPHLIRLFSRDAPGREDNTFKDRPSESDELQTIQEDSAATSESLDVMASQKRPSQRHGSKYLATASTMDHARHGFLPRHRDTGILDSIGRFFGGDRGAPKRGSGKDSHHPARTAHYGSLPQKSHGRTQDENPVVHFFKNIVTPRTPPPSQGKGRGLSLSRFSWGAEGQRPGFGYGGRASDYKSAHKGFKGVDAQGTLSKIFKLGGRDSRSGSPMARR
[1]; native
  Product formed, native acceptor: 22.2 nmol/min/mg
[1]; myelin basic protein was not reduced and carboxymethylated
  Product formed, reduced and carboxymethylated acceptor: 21.3 nmol/min/mg
[2]
  N-acetylgalactosamines per molecule: 1.2 to 1.5 N-acetylgalactosamines per molecule
